According to patent publication US20190016816A1:

Target: FcγRIIa (CD32a His131) (UniProt P12318)
Assay: flow cytometry, CHO cells stably expressing CD32a His131, fluorescent anti-human IgG secondary, MFI (mean)

Chain of FcγRIIa (CD32a His131) (P12318 34-317 limits assumed): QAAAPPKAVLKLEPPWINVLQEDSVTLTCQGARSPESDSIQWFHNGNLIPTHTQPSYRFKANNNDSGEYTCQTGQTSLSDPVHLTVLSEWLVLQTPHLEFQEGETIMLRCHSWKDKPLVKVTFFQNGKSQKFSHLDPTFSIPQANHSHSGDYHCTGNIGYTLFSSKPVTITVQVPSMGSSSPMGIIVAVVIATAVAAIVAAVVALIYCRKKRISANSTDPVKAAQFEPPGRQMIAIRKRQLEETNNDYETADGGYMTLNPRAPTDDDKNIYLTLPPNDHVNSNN

control human IgG1 molecule (antibody)
EC50 (read off the curve): 9 nM
